Measurements taken from the Immune Epitope Database (IEDB).

Assays:
Assay in all cases: IEDB peptide-MHC binding, purified MHC/competitive/radioactivity; ≥ and ≤ were set here for values at or beyond the usual limits of such assays
Details in all cases: source organism: Bordetella pertussis
HLA-B*44:03 = molecular target: HLA-B*44:03
HLA-B*53:01 = molecular target: HLA-B*53:01
HLA-B*35:01 = molecular target: HLA-B*35:01
HLA-B*57:01 = molecular target: HLA-B*57:01
HLA-B*07:02 = molecular target: HLA-B*07:02
HLA-A*02:01 = molecular target: HLA-A*02:01

Sequence | IC50 (HLA-B*44:03) | IC50 (HLA-B*53:01) | also measured
AEVTDTSPS | 41.2 µM |  | 
LAANGNGQW |  | 1.67 µM | 
GAASSYFEY | 44 µM | 47.3 µM | IC50 (HLA-B*35:01): 2.67 µM
KSLPGGKLP |  |  | IC50 (HLA-B*57:01): 5.78 µM
LKRPGSSPM |  |  | IC50 (HLA-B*07:02): 3.84 µM
LATYQSEYL |  | ≥ 78.2 µM | 
MPIDRKTLC |  | 1.63 µM | 
EPASANTLL |  |  | IC50 (HLA-B*35:01): 69.9 µM; IC50 (HLA-B*07:02): 15 µM
RELSAAANA | 21.1 µM |  | 
FEPGITTNY | 42.8 µM |  | 
YVLVKTNMV |  |  | IC50 (HLA-A*02:01): 3.96 µM
YEYIWGLYQ | 8.91 µM |  | 
ASVSNPGTF |  |  | IC50 (HLA-B*57:01): 40.8 µM
NALAWALML |  |  | IC50 (HLA-B*35:01): 6.31 µM
AAQATVVQR | 23.3 µM |  | 
ASPRRARRA |  | 69.9 µM | 
TAGATPFDI |  | 4.91 µM | 
PKPKPKAER |  | ≥ 78.2 µM | 
